Assay results published in patent US20160137730A1 (Novartis, published 2016).

T1: Rat P-cadherin (CDH3) D1-5 (rat, UniProt P10287 100-647 (mouse entry))
T1 construct: Rat CDH3 residues 100-647 with a C-terminal 6xHis tag (NM_053938.1, NP_446390); it may include leader and vector residues; also called rat pCAD-6xHis
T1 chain: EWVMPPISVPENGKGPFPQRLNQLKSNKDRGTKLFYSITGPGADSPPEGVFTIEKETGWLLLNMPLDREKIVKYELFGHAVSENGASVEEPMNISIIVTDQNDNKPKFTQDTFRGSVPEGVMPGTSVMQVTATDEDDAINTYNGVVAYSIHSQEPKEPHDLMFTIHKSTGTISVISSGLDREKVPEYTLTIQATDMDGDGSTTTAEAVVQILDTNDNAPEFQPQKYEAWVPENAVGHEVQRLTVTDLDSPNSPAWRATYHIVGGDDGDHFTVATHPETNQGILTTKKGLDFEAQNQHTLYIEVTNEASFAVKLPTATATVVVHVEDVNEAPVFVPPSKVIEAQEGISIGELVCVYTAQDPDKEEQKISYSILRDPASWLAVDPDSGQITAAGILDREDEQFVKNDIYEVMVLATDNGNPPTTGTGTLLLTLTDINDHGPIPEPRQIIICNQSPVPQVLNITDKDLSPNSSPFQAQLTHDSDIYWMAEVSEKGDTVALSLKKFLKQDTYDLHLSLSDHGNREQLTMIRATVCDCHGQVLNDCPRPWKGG

B1: NOV169N31Q-MCC-DM1 (antibody, human IgG1, kappa, V domains shown)
VH: QVQLQQSGPGLVKPSQTLSLTCAISGDSVSSQSAAWNWIRQSPSRGLEWLGRIYYRSKWYNDYALSVKSRITINPDTSKNQFSLQLNSVTPEDTAVYYCARGEGYGREGFAIWGQGTLVTVSS
VL: DIQMTQSPSSLSASVGDRVTITCRASQTISNTLAWYQQKPGKAPKLLIYAASNLQSGVPSRFSGSGSGTDFTLTISSLQPEDFATYYCQQYLSWFTFGQGTKVEIKR
modifications: DM1 (maytansinoid) attached through the MCC linker to primary amines of the antibody; sites not given
notes: MAR 3.7 (one-step process), 3.15 (in situ process), target DAR 3.8; also called NOV169N31Q ADC
B2: NOV169N31Q (antibody, human IgG1, kappa, V domains shown)
VH: QVQLQQSGPGLVKPSQTLSLTCAISGDSVSSQSAAWNWIRQSPSRGLEWLGRIYYRSKWYNDYALSVKSRITINPDTSKNQFSLQLNSVTPEDTAVYYCARGEGYGREGFAIWGQGTLVTVSS
VL: DIQMTQSPSSLSASVGDRVTITCRASQTISNTLAWYQQKPGKAPKLLIYAASNLQSGVPSRFSGSGSGTDFTLTISSLQPEDFATYYCQQYLSWFTFGQGTKVEIKR
notes: N31Q in HCDR1 removes a deamidation site of parental NOV169; also called anti-P-cadherin antibody NOV169N31Q; NOV169N31Q Naked
B3: NEG0012-MCC-DM1 (antibody, human IgG1, kappa, V domains shown)
VH: EVQLVQSGAEVKKPGESLKISCKVSGYTFTDHTIHWMRQMPGKGLEWMGYIYPRSGSINYNEKFKGQVTISADKSSSTAYLQWSSLKASDTAMYYCARRNLFLPMEYWGQGTLVTVSS
VL: DIVMTQTPLSLPVTPGEPASISCRSSQSLLSSGDQKNYLTWYLQKPGQSPQLLIYWASTRESGVPDRFSGSGSGTDFTLKISRVEAEDVGVYYCQNDYRYPLTFGQGTKLEIKR
modifications: DM1 (maytansinoid) attached through the MCC linker to primary amines of the antibody; sites not given
notes: Antibody drug conjugate in Ab-MCC-DM1 format; also called NEG0012 ADC
B4: NEG0012 (antibody, human IgG1, kappa, V domains shown)
VH: EVQLVQSGAEVKKPGESLKISCKVSGYTFTDHTIHWMRQMPGKGLEWMGYIYPRSGSINYNEKFKGQVTISADKSSSTAYLQWSSLKASDTAMYYCARRNLFLPMEYWGQGTLVTVSS
VL: DIVMTQTPLSLPVTPGEPASISCRSSQSLLSSGDQKNYLTWYLQKPGQSPQLLIYWASTRESGVPDRFSGSGSGTDFTLKISRVEAEDVGVYYCQNDYRYPLTFGQGTKLEIKR
notes: Humanized anti-P-cadherin antibody derived from a murine hybridoma; also called NEG0012 Naked
B5: NEG0013 (antibody, human IgG1, kappa, V domains shown)
VH: EVQLVQSGAEVKKPGESLKISCKVSGYTFTDHTIHWMRQMPGKGLEWMGYIYPRSGSINYNEKFKGQVTISADKSSSTAYLQWSSLKASDTAMYYCARRNLFLPMEYWGQGTLVTVSS
VL: DIVMTQTPLSLPVTPGEPASISCRSSQSLLSSGNQKNYLTWYLQKPGQSPQLLIYWASTRESGVPDRFSGSGSGTDFTLKISRVEAEDVGVYYCQNDYSYPLTFGQGTKLEIKR
notes: Humanized anti-P-cadherin antibody derived from a murine hybridoma; also called NEG0013 Naked
B6: NEG0013-MCC-DM1 (antibody, human IgG1, kappa, V domains shown)
VH: EVQLVQSGAEVKKPGESLKISCKVSGYTFTDHTIHWMRQMPGKGLEWMGYIYPRSGSINYNEKFKGQVTISADKSSSTAYLQWSSLKASDTAMYYCARRNLFLPMEYWGQGTLVTVSS
VL: DIVMTQTPLSLPVTPGEPASISCRSSQSLLSSGNQKNYLTWYLQKPGQSPQLLIYWASTRESGVPDRFSGSGSGTDFTLKISRVEAEDVGVYYCQNDYSYPLTFGQGTKLEIKR
modifications: DM1 (maytansinoid) attached through the MCC linker to primary amines of the antibody; sites not given
notes: Antibody drug conjugate in Ab-MCC-DM1 format; also called NEG0013 ADC
B7: NEG0064 (antibody, human IgG1, kappa, V domains shown)
VH: QIQLVQSGAEVKKPGSSVKVSCKVSGYTFTDHTLHWMRQAPGQGLEWMGYIYPRSGSTKYNENFRGRVTITADTSSSTAYMELSSLRSEDTAVYYCVRRLLFLPLDYWGQGTLVTVSS
VL: EIVMTQSPATLSLSPGERATLSCRSSQSLLSSGNQKSYLTWYQQKPGQAPRLLIYWASTRESGIPARFSGSGSGTDFTLTISSLQPEDFAVYYCQNDYSYPFTFGQGTKLEIKR
notes: Humanized anti-P-cadherin antibody derived from a murine hybridoma; also called NEG0064 Naked
B8: NEG0016 (antibody, human IgG1, kappa, V domains shown)
VH: QIQLVQSGAEVKKPGSSVKVSCKVSGYTFTDHTLHWMRQAPGQGLEWMGYIYPRSGSTKYNENFRGRVTITADTSSSTAYMELSSLRSEDTAVYYCARRLLFLPLDYWGQGTLVTVSS
VL: EIVMTQSPATLSLSPGERATLSCRSSQSLLSSGNQKSYLTWYQQKPGQAPRLLIYWASTRESGIPARFSGSGSGTDFTLTISSLQPEDFAVYYCQNDYSYPFTFGQGTKLEIKR
notes: Humanized anti-P-cadherin antibody derived from a murine hybridoma; also called NEG0016 Naked
B9: NEG0016-MCC-DM1 (antibody, human IgG1, kappa, V domains shown)
VH: QIQLVQSGAEVKKPGSSVKVSCKVSGYTFTDHTLHWMRQAPGQGLEWMGYIYPRSGSTKYNENFRGRVTITADTSSSTAYMELSSLRSEDTAVYYCARRLLFLPLDYWGQGTLVTVSS
VL: EIVMTQSPATLSLSPGERATLSCRSSQSLLSSGNQKSYLTWYQQKPGQAPRLLIYWASTRESGIPARFSGSGSGTDFTLTISSLQPEDFAVYYCQNDYSYPFTFGQGTKLEIKR
modifications: DM1 (maytansinoid) attached through the MCC linker to primary amines of the antibody; sites not given
notes: Antibody drug conjugate in Ab-MCC-DM1 format; also called NEG0016 ADC
B10: NEG0067 (antibody, human IgG1, kappa, V domains shown)
VH: QIQLVQSGAEVKKPGSSVKVSCKVSGYTFTDHTLHWMRQAPGQGLEWMGYIYPRSGSTKYNENFKGRVTITADTSSSTAYMELSSLRSEDTAVYYCVRRLLFLPLDYWGQGTLVTVSS
VL: EIVMTQSPATLSLSPGERATLSCRSSQSLLSSGNQKSYLTWYQQKPGQAPRLLIYWASTRESGIPARFSGSGSGTDFTLTISSLQPEDFAVYYCQNDYSYPFTFGQGTKLEIKR
notes: Humanized anti-P-cadherin antibody derived from a murine hybridoma; also called NEG0067 Naked
B11: NEG0067-MCC-DM1 (antibody, human IgG1, kappa, V domains shown)
VH: QIQLVQSGAEVKKPGSSVKVSCKVSGYTFTDHTLHWMRQAPGQGLEWMGYIYPRSGSTKYNENFKGRVTITADTSSSTAYMELSSLRSEDTAVYYCVRRLLFLPLDYWGQGTLVTVSS
VL: EIVMTQSPATLSLSPGERATLSCRSSQSLLSSGNQKSYLTWYQQKPGQAPRLLIYWASTRESGIPARFSGSGSGTDFTLTISSLQPEDFAVYYCQNDYSYPFTFGQGTKLEIKR
modifications: DM1 (maytansinoid) attached through the MCC linker to primary amines of the antibody; sites not given
notes: Antibody drug conjugate in Ab-MCC-DM1 format; also called NEG0067 ADC
B12: NEG0064-MCC-DM1 (antibody, human IgG1, kappa, V domains shown)
VH: QIQLVQSGAEVKKPGSSVKVSCKVSGYTFTDHTLHWMRQAPGQGLEWMGYIYPRSGSTKYNENFRGRVTITADTSSSTAYMELSSLRSEDTAVYYCVRRLLFLPLDYWGQGTLVTVSS
VL: EIVMTQSPATLSLSPGERATLSCRSSQSLLSSGNQKSYLTWYQQKPGQAPRLLIYWASTRESGIPARFSGSGSGTDFTLTISSLQPEDFAVYYCQNDYSYPFTFGQGTKLEIKR
modifications: DM1 (maytansinoid) attached through the MCC linker to primary amines of the antibody; sites not given
notes: Antibody drug conjugate in Ab-MCC-DM1 format; also called NEG0064 ADC

Assays:
[1] = target: Human P-cadherin (human, UniProt P22223 108-829); assay: cell-based or functional assay
Sequence of Human P-cadherin (P22223 108-829 limits assumed): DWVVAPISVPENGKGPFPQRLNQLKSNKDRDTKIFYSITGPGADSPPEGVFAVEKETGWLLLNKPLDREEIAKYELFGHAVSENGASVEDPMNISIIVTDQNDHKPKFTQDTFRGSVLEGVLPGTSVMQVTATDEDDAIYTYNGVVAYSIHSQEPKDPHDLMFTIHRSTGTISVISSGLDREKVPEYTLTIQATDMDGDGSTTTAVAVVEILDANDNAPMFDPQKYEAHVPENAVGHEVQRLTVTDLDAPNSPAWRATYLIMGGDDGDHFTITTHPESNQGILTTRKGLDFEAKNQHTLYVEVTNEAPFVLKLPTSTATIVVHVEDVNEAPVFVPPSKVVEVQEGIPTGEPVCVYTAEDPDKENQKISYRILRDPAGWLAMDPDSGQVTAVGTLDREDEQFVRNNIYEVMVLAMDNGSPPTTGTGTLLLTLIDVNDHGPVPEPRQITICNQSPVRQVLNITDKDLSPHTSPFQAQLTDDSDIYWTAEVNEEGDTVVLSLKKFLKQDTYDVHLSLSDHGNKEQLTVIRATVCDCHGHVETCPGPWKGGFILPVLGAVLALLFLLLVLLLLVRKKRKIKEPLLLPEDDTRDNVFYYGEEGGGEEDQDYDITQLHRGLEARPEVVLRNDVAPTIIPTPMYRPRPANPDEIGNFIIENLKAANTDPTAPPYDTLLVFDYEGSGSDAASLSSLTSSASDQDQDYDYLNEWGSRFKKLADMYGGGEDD

[2] = target: T2, Cynomolgus Monkey P-cadherin var. 2 (CDH3) D1-5 (cynomolgus monkey); assay: SPR Biacore, ADC captured via Protein A, ECD-6xHis analyte, 25C, 1:1 fit
T2 construct: Cynomolgus CDH3 variant 2 residues 108-654 with a C-terminal 6xHis tag; The printed entry starts with a leader and vector residues; also called Cyno_2 P-cad; cyno2 pCAD-6xHis
T2 sequence (chain, as listed by the source limits assumed): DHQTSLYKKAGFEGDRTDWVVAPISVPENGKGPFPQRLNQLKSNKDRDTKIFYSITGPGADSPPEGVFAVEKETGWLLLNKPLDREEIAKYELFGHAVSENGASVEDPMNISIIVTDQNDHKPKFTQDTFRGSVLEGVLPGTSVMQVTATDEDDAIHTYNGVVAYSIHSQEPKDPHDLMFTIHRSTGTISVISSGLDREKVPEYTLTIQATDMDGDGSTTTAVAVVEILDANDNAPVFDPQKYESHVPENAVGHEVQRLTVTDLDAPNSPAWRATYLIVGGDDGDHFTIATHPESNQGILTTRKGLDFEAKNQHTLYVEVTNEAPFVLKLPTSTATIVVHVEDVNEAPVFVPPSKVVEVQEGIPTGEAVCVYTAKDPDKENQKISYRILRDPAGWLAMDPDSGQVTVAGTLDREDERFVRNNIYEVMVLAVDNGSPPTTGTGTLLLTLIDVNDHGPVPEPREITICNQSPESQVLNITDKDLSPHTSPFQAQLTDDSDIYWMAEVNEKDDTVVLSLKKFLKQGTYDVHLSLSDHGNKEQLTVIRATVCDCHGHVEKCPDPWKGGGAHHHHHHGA
From the text: (§1) Briefly, HBS-P⁺ (0.01 M HEPES, pH 7.4, 0.15 M NaCl, 0.05% Surfactant P20) supplemented with 2% Odyssey® blocking buffer (Li-Cor Biosciences, Lincoln, Nebr.) was used as the running buffer for all the experiments on the Biacore® T100 instrument. HBS-P (0.01 M HEPES, pH 7.4, 0.15 M NaCl, 0.005% Surfactant P20) supplemented with 2% Odyssey® blocking buffer was used as the running buffer for all the experiments on the Biacore® 2000 instrument. The immobilization level and analyte interactions were measured by response unit (RU).
(§2) For kinetic measurements, experiments were performed in which the antibodies were captured to the sensor chip surface via the immobilized Protein A and the ability of the P-cadherin proteins to bind in free solution was determined. Briefly, 28 μg/ml of Protein A at pH 4.5 was immobilized on a CM5 sensor chip through amine coupling at flow rate of 10 μl/minute on two flow cells to reach 2300-3300 RUs. 0.01-0.25 μg/ml of test antibodies was then injected at 5 μl/min for 3 minute. […] Subsequently, 6.25-100 nM of P-cadherin ECD was diluted in a 2-fold series and injected at a flow rate of 40 μl/min for 2-4 min over both reference and test flow cells. Table 11 of tested ECDs is listed below. Dissociation of the binding was followed for 5 min. After each injection cycle, the chip surface was regenerated with PBS/6 M Guanidine HCl, pH 7.4 at 100 μl/min for 45 seconds.

[3] = target: T3, Human P-cadherin (CDH3) D1-5 (human, UniProt P22223 108-652); assay: as above
T3 construct: Human CDH3 residues 108-652 with a C-terminal 6xHis tag, made in Tn5 insect cells with baculovirus (NM_001793.4, NP_001784); It may include a secretion signal and vector residues, as the printed cyno constructs do; no cleavage site is stated; also called human pCAD-6xHis; human P-cadherin ECD
T3 sequence (P22223 108-652 limits assumed): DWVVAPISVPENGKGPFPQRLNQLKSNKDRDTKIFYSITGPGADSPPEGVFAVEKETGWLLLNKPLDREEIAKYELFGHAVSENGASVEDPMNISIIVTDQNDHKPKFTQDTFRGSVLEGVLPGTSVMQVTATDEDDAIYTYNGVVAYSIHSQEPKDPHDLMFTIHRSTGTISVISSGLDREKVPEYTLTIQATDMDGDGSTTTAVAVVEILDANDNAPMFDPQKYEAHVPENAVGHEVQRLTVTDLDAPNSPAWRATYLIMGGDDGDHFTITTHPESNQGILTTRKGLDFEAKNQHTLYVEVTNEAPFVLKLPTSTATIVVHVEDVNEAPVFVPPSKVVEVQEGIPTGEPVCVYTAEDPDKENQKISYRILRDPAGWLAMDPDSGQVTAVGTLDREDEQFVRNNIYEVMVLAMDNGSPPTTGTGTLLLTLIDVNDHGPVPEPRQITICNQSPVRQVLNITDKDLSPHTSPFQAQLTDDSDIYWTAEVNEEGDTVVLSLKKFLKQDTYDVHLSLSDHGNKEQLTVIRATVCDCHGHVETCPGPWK
From the text: as §1, §2

[4] = target: T4, Cynomolgus Monkey P-cadherin var. 1 (CDH3) D1-5 (cynomolgus monkey); assay: as above
T4 construct: Cynomolgus CDH3 variant 1 residues 108-654 with a C-terminal 6xHis tag; The printed entry starts with a leader and vector residues; also called Cyno_1 P-cad; cyno1 pCAD-6xHis
T4 sequence (chain, as listed by the source limits assumed): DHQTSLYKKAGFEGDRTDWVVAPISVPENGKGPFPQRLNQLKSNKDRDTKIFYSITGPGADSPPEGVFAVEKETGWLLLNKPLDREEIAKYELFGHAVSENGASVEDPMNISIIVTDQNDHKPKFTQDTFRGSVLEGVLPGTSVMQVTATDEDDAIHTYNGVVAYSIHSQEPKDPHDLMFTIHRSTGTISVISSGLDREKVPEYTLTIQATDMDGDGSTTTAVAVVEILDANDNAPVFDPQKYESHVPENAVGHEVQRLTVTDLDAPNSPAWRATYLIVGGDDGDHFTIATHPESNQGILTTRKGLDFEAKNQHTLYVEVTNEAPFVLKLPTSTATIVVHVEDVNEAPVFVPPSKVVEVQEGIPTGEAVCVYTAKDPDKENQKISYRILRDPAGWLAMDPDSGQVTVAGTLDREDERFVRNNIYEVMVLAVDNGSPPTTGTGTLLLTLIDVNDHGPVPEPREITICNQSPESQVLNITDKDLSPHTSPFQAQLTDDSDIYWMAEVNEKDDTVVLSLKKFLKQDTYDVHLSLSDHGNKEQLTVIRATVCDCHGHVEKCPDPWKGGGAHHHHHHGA
From the text: as §1, §2

[5] = target: T3, Human P-cadherin (CDH3) D1-5; assay: SPR Biacore, Ab captured via Protein A, ECD-6xHis analyte, 25C, 1:1 fit
From the text: as §1, §2

[6] = target: T1, Rat P-cadherin (CDH3) D1-5; assay: SPR Biacore, Ab captured via Protein A, ECD-6xHis analyte
[7] = target: T1, Rat P-cadherin (CDH3) D1-5; assay: SPR Biacore, Ab captured via Protein A, ECD-6xHis analyte, 25C, 1:1 fit
From the text: as §1, §2

[8] = target: T1, Rat P-cadherin (CDH3) D1-5; assay: SPR Biacore, ADC captured via Protein A, ECD-6xHis analyte, 25C, 1:1 fit
From the text: as §1, §2

Row | Binder | Kd [3] | Kd [5] | Kd [7] | other results
1 | B1 | 27 nM |  |  | IC50 (nM), CellTiter-Glo proliferation/survival, 5 days, A431 cells [1]: 21.8 nM; IC50 (nM), CellTiter-Glo proliferation/survival, 5 days, BICR6 cells [1]: 9.62 nM; IC50 (nM), CellTiter-Glo proliferation/survival, 5 days, HCC38 cells [1]: 5.29 nM; IC50 (nM), CellTiter-Glo proliferation/survival, 5 days, HCC70 cells [1]: 3.23 nM; IC50 (nM), CellTiter-Glo proliferation/survival, 5 days, HCC1806 cells [1]: 11.4 nM; IC50 (nM), CellTiter-Glo proliferation/survival, 5 days, HCC1954 cells [1]: 2.28 nM; IC50 (nM), CellTiter-Glo proliferation/survival, 5 days, scaBER cells [1]: 4.06 nM; Kd [2]: 47.1 nM; Kd [4]: 27.5 nM
2 | B2 |  | 33.3 nM |  | binding result [6]: no binding (tested: 6.25-100 nM P-cadherin ECD injected)
3 | B3 | 31.3 nM |  |  | 
4 | B4 |  | 44.8 nM |  | 
5 | B5 |  | 37.3 nM | 37 nM | 
6 | B6 | 36 nM |  |  | 
7 | B7 |  | 3.66 nM | 8.99 nM | 
8 | B8 |  | 60 nM | 60.1 nM | 
9 | B9 | 54 nM |  |  | 
10 | B10 |  | 3.21 nM | 10.3 nM | 
11 | B11 | 6 nM |  |  | 
12 | B12 | 4.4 nM |  |  | Kd [8]: 13.3 nM
